± gives the standard deviation of the averaged measurements.
Test: total protein half-life in vivo (active degradation + dilution); higher = more stable protein
[1] = wild type E. coli NCM3722, growth: C-lim chemostat, doubling time 3 h
[2] = wild type E. coli NCM3722, growth: C-lim chemostat, doubling time 6 h
[3] = wild type E. coli NCM3722, growth: C-lim chemostat, doubling time 12 h
[4] = E. coli NCM3722 delta-clpP delta-lon delta-hslV, growth: N-lim chemostat, doubling time 6 h
[5] = E. coli NCM3722 delta-clpP, growth: N-lim chemostat, doubling time 6 h
[6] = E. coli NCM3722 delta-hslV, growth: N-lim chemostat, doubling time 6 h
[7] = E. coli NCM3722 delta-lon, growth: N-lim chemostat, doubling time 6 h
[8] = E. coli NCM3722 delta-smpB, growth: N-lim chemostat, doubling time 6 h
[9] = wild type E. coli NCM3722, growth: P-lim chemostat, doubling time 6 h
[10] = wild type E. coli NCM3722, growth: P-lim chemostat, doubling time 12 h
[11] = wild type E. coli NCM3722, growth: N-lim chemostat, doubling time 12 h
[12] = wild type E. coli NCM3722, growth: N-lim chemostat, doubling time 6 h

Sequence	total protein half-life in vivo [1]	total protein half-life in vivo [2]	total protein half-life in vivo [3]	total protein half-life in vivo [4]	total protein half-life in vivo [5]	total protein half-life in vivo [6]	total protein half-life in vivo [7]	total protein half-life in vivo [8]	total protein half-life in vivo [9]	total protein half-life in vivo [10]	total protein half-life in vivo [11]	total protein half-life in vivo [12]
MRLSDYFPESSISVIHSAKDWQEAIDFSMVSLLDKNYISENYIQAIKDSTINNGPYYILAPGVAMPHARPECGALKTGMSLTLLEQGVYFPGNDEPIKLLIGLSAADADSHIGAIQALSELLCEEEILEQLLTASSEKQLADIISRG	3.24 ± 0.38 h	4.03 h	8.65 h									
MRLSLPRLKMPRLPGFSILVWISTALKGWVMGSREKDTDSLIMYDRTLLWLTFGLAAIGFIMVTSASMPIGQRLTNDPFFFAKRDGVYLILAFILAIITLRLPMEFWQRYSATMLLGSIILLMIVLVVGSSVKGASRWIDLGLLRIQPAELTKLSLFCYIANYLVRKGDEVRNNLRGFLKPMGVILVLAVLLLAQPDLGTVVVLFVTTLAMLFLAGAKLWQFIAIIGMGISAVVLLILAEPYRIRRVTAFWNPWEDPFGSGYQLTQSLMAFGRGELWGQGLGNSVQKLEYLPEAHTDFIFAIIGEELGYVGVVLALLMVFFVAFRAMSIGRKALEIDHRFSGFLACSIGIWFSFQALVNVGAAAGMLPTKGLTLPLISYGGSSLLIMSTAIMMLLRIDYETRLEKAQAFVRGSR [P0ABG4]	2.41 ± 0.21 h		3.2 h	4.49 h	2.97 ± 0.5 h	3.01 h	3.64 h	2.76 ± 0.73 h	2.93 h	5 h		
MRLTAKQVTWLKVCLHLAGLLPFLWLVWAINHGGLGADPVKDIQHFTGRTALKFLLATLLITPLARYAKQPLLIRTRRLLGLWCFAWATLHLTSYALLELGVNNLALLGKELITRPYLTLGIISWVILLALAFTSTQAMQRKLGKHWQQLHNFVYLVAILAPIHYLWSVKIISPQPLIYAGLAVLLLALRYKKLRSLFNRLRKQVHNKLSV											8.91 h	
MRLVQLSRHSIAFPSPEGALREPNGLLALGGDLSPARLLMAYQRGIFPWFSPGDPILWWSPDPRAVLWPESLHISRSMKRFHKRSPYRVTMNYAFGQVIEGCASDREEGTWITRGVVEAYHRLHELGHAHSIEVWREDELVGGMYGVAQGTLFCGESMFSRMENASKTALLVFCEEFIGHGGKLIDCQVLNDHTASLGACEIPRRDYLNYLNQMRLGRLPNNFWVPRCLFSPQE [P0A8P1]	0.705 ± 0.05 h				4.09 ± 0.21 h							
MRMNVFEMEGFLRGKCVPRDLKVNETNAEYLVRKFDALEAKCAALENKIIPVSAELPPANESVLLFDANGEGWLIGWRSLWYTWGQKETGEWQWTFQVGDLENVNITHWAVMPKAPEAGA	2.52 h							2.28 h	3.02 ± 0.68 h	5.84 h		
MRNHQLGIYEKALAKDLSWPERLVLAKSCGFDFVEMSVDETDERLSRLDWSAAQRTSLVAAMIETGVGIPSMCLSAHRRFPFGSRDEAVRERAREIMSKAIRLARDLGIRTIQLAGYDVYYEDHDEGTRQRFAEGLAWAVEQAAASQVMLAVEIMDTAFMNSISKWKKWDEMLASPWFTVYPDVGNLSAWGNDVPAELKLGIDRIAAIHLKDTQPVTGQSPGQFRDVPFGEGCVDFVGIFKTLHKLNYRGSFLIEMWTEKAKEPVLEIIQARRWIEARMQEAGFIC	1.06 h	1.6 ± 0.19 h	2.24 h									
MRNKNIIMLLMSSLILSGCGPQPENKESQQQQPSTPTEQQVLAAQQAAIKEAEQSAAAAKALAQQEVQQYSDKQALQGRLQEAPTFARAAKAKATHIANPGTARYQQFDDNPVKQVAQNPLATFSLDVDTGSYANVRRFLNQGLLPPPDAVRVEEIVNYFPSDWDIKDKQSIPASKPIPFAMRYELAPAPWNEQRTLLKVDILAKDRKSEELPASNLVFLIDTSGSMISDERLPLIQSSLKLLVKELREQDNIAIVTYAGDSRIALPSISGSHKAEINAAIDSLDAEGSTNGGAGLELAYQQATKGFIKGGINRILLATDGDFNVGIDDPKSIESMVKKQRESGVTLSTFGVGNSNYNEAMMVRIADVGNGNYSYIDTLSEAQKVLNSEMRQMLITVAKDVKAQIEFNPAWVTEYRQIGYEKRQLRVEHFNNDNVDAGDIGAGKHITLLFELTLNGQKASIDKLRYAPDNKLAKSDKTKELAWLKIRWKYPQGKESQLVEFPLGPTINAPSEDMRFRAAVAAYGQKLRGSEYLNNTSWQQIKQWAQQAKGEDPQGYRAEFIRLIELADGVTDISQ					4.02 ± 0.33 h			2.8393 ± 0.00061 h				
MRNKPFYLLCAFLWLAVSHALAADSTITIRGYVRDNGCSVAAESTNFTVDLMENAAKQFNNIGATTPVVPFRILLSPCGNAVSAVKVGFTGVADSHNANLLALENTVSAASGLGIQLLNEQQNQIPLNAPSSALSWTTLTPGKPNTLNFYARLMATQVPVTAGHINATATFTLEYQ	2.61 h	5.55 h	15.7 h					5.58 ± 0.25 h	5.52 h	9.2 h	13.4 h	> 8 h
MRNLVKYVGIGLLVMGLAACDDKDTNATAQGSVAESNATGNPVNLLDGKLSFSLPADMTDQSGKLGTQANNMHVWSDATGQKAVIVIMGDDPKEDLAVLAKRLEDQQRSRDPQLQVVTNKAIELKGHKMQQLDSIISAKGQTAYSSVILGNVGNQLLTMQITLPADDQQKAQTTAENIINTLVIQ [P0AEE1]			11.3 ± 1 h	6.11 ± 1.1 h	5.96 ± 0.21 h	5.42 ± 0.085 h	6.24 ± 0.22 h	6.05 ± 1.3 h	5.55 ± 1.2 h	10.9 ± 0.47 h	10.9 ± 0.59 h	5.6 ± 0.16 h
MRNRTLADLDRVVALGGGHGLGRVLSSLSSLGSRLTGIVTTTDNGGSTGRIRRSEGGIAWGDMRNCLNQLITEPSVASAMFEYRFGGNGELSGHNLGNLMLKALDHLSVRPLEAINLIRNLLKVDTHLIPMSEHPVDLMAIDDQGHEVYGEVNIDQLTTPIQELLLTPNVPATREAVHAINEADLIIIGPGSFYTSLMPILLLKEIAQALRRTPAPMVYIGNLGRELSLPAANLKLESKLAIMEQYVGKKVIDAVIVGPKVDVSAVKERIVIQEVLEASDIPYRHDRQLLHNALEKALQALG	3.16 ± 0.085 h	5.45 ± 0.32 h	10.3 ± 1.7 h	4.62 ± 0.5 h	4.2 ± 0.13 h	4.3 ± 0.14 h	5.33 ± 0.18 h	4.5 ± 0.17 h	6.31 ± 0.59 h	12.1 ± 0.98 h	7.33 ± 0.076 h	4.6 ± 0.073 h
MRNTLIPILVAICLFITGVAILNIQLWYSAKAEYLAGARYAANNINHILEEASQATQTAVNIAGKECNLEEQYQLGTEAALKPHLRTIIILKQGIVWCTSLPGNRVLLSRIPVFPDSNLLLAPAIDTVNRLPILLYQNQFADTRILVTISDQHIRGALNVPLKGVRYVLRVADDIIGPTGDVMTLNGHYPYTEKVHSTKYHFTIIFNPPPLFSFYRLIDKGFGILIFILLIACAAAFLLDRYFNKSATPEEILRRAINNGEIVPFYQPVVNGREGTLRGVEVLARWKQPHGGYISPAAFIPLAEKSGLIVPLTQSLMNQVARQMNAIASKLPEGFHIGINFSASHIISPTFVDECLNFRDSFTRRDLNLVLEVTEREPLNVDESLVQRLNILHENGFVIALDDFGTGYSGLSYLHDLHIDYIKIDHSFVGRVNADPESTRILDCVLDLARKLSISIVAEGVETKEQLDYLNQNYITFQQGYYFYKPVTYIDLVKIILSKPKVKVVVE				3.79 h			4.37 h	6.19 ± 0.68 h			11.9 ± 0.31 h	4.59 h

Source: the supplement of paper PMC11246515
